The supplement of paper PMC9112550, “Optimization of the antimicrobial peptide Bac7 by deep mutational scanning” (BMC Biology, 2022)

Test system: Escherichia coli TOP10
Test: shrunken log2 fold change of peptide-encoding DNA abundance (4.5 h post-induction vs induction); higher = less antimicrobial activity (less host growth inhibition)
Settings: time post-induction: 4.5 h; library: site-saturation at positions 5, 18, 19, 20
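Note: peptides expressed intracellularly from a pBAD plasmid library in pooled LB shake-flask culture, induced with 0.3% L-arabinose, DNA abundance read by NGS, three biological replicates, DESeq2 with apeglm shrinkage.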

Sequence	shrunken log2 fold change
RRIRHRPPRLPRPRPRPDANPRP	0.152
RRIRHRPPRLPRPRPRPDDFPRP	-0.198
RRIRHRPPRLPRPRPRPDDWPRP	-0.0115
RRIRHRPPRLPRPRPRPDEWPRP	-0.000921
RRIRHRPPRLPRPRPRPDFTPRP	-0.0849
RRIRHRPPRLPRPRPRPDGHPRP	-0.0262
RRIRHRPPRLPRPRPRPDIIPRP	-0.0233
RRIRHRPPRLPRPRPRPDIQPRP	-0.0379
RRIRHRPPRLPRPRPRPDKCPRP	-0.0295
RRIRHRPPRLPRPRPRPDLKPRP	-0.0314
RRIRHRPPRLPRPRPRPDMCPRP	-0.173
RRIRHRPPRLPRPRPRPDMYPRP	-0.00022
RRIRHRPPRLPRPRPRPDNKPRP	-0.27
RRIRHRPPRLPRPRPRPDQQPRP	0.0104
RRIRHRPPRLPRPRPRPDRHPRP	-0.159
RRIRHRPPRLPRPRPRPDRLPRP	-0.0627
RRIRHRPPRLPRPRPRPDRQPRP	-0.135
RRIRHRPPRLPRPRPRPDSAPRP	-0.216
RRIRHRPPRLPRPRPRPDTGPRP	-0.014
RRIRHRPPRLPRPRPRPDTNPRP	0.102
RRIRHRPPRLPRPRPRPDVAPRP	-0.00146
RRIRHRPPRLPRPRPRPDVRPRP	-0.00783
RRIRHRPPRLPRPRPRPDVYPRP	0.0592
RRIRHRPPRLPRPRPRPDYCPRP	-0.01
RRIRHRPPRLPRPRPRPDYHPRP	-0.336

Sequence	shrunken log2 fold change
RRIRHRPPRLPRPRPRPDYPPRP	-0.111
RRIRHRPPRLPRPRPRPECRPRP	0.0764
RRIRHRPPRLPRPRPRPECWPRP	0.514
RRIRHRPPRLPRPRPRPEDTPRP	0.0437
RRIRHRPPRLPRPRPRPEELPRP	-0.00776
RRIRHRPPRLPRPRPRPEEYPRP	-0.289
RRIRHRPPRLPRPRPRPEFNPRP	0.0664
RRIRHRPPRLPRPRPRPEGFPRP	-0.078
RRIRHRPPRLPRPRPRPEGHPRP	0.065
RRIRHRPPRLPRPRPRPEHIPRP	-0.142
RRIRHRPPRLPRPRPRPEHNPRP	-0.0734
RRIRHRPPRLPRPRPRPEIGPRP	0.103
RRIRHRPPRLPRPRPRPEKGPRP	-0.00804
RRIRHRPPRLPRPRPRPEKPPRP	-0.01
RRIRHRPPRLPRPRPRPELPPRP	-0.056
RRIRHRPPRLPRPRPRPELTPRP	0.054
RRIRHRPPRLPRPRPRPEMLPRP	-0.32
RRIRHRPPRLPRPRPRPEMWPRP	0.263
RRIRHRPPRLPRPRPRPEQAPRP	-0.0477
RRIRHRPPRLPRPRPRPEQTPRP	-0.01
RRIRHRPPRLPRPRPRPERQPRP	-0.0882
RRIRHRPPRLPRPRPRPETKPRP	-0.0652
RRIRHRPPRLPRPRPRPEVCPRP	0.116
RRIRHRPPRLPRPRPRPEWDPRP	0.00396
RRIRHRPPRLPRPRPRPEWPPRP	0.228

Sequence	shrunken log2 fold change
RRIRHRPPRLPRPRPRPEYIPRP	0.00452
RRIRHRPPRLPRPRPRPFACPRP	-0.205
RRIRHRPPRLPRPRPRPFAFPRP	-0.121
RRIRHRPPRLPRPRPRPFAKPRP	-0.362
RRIRHRPPRLPRPRPRPFCKPRP	-0.571
RRIRHRPPRLPRPRPRPFDQPRP	-0.0783
RRIRHRPPRLPRPRPRPFGLPRP	-0.0904
RRIRHRPPRLPRPRPRPFHWPRP	-0.0742
RRIRHRPPRLPRPRPRPFIGPRP	-0.231
RRIRHRPPRLPRPRPRPFIKPRP	-0.138
RRIRHRPPRLPRPRPRPFIPPRP	0.0413
RRIRHRPPRLPRPRPRPFKYPRP	-0.115
RRIRHRPPRLPRPRPRPFMSPRP	-0.301
RRIRHRPPRLPRPRPRPFNNPRP	-0.159
RRIRHRPPRLPRPRPRPFPDPRP	0.0592
RRIRHRPPRLPRPRPRPFPTPRP	-0.0427
RRIRHRPPRLPRPRPRPFQYPRP	-0.147
RRIRHRPPRLPRPRPRPFREPRP	-0.0591
RRIRHRPPRLPRPRPRPFRWPRP	0.137
RRIRHRPPRLPRPRPRPFSEPRP	-0.591
RRIRHRPPRLPRPRPRPFVWPRP	-0.0616
RRIRHRPPRLPRPRPRPFWQPRP	0.0187
RRIRHRPPRLPRPRPRPFYIPRP	-1.15
RRIRHRPPRLPRPRPRPFYQPRP	-0.389
RRIRHRPPRLPRPRPRPFYWPRP	-0.0655

Sequence	shrunken log2 fold change
RRIRHRPPRLPRPRPRPFYYPRP	-0.0287
RRIRHRPPRLPRPRPRPGEDPRP	0.0147
RRIRHRPPRLPRPRPRPGERPRP	-0.134
RRIRHRPPRLPRPRPRPGFTPRP	-0.358
RRIRHRPPRLPRPRPRPGHDPRP	0.0104
RRIRHRPPRLPRPRPRPGILPRP	-0.111
RRIRHRPPRLPRPRPRPGKFPRP	-0.175
RRIRHRPPRLPRPRPRPGLDPRP	0.269
RRIRHRPPRLPRPRPRPGMFPRP	-0.178
RRIRHRPPRLPRPRPRPGMVPRP	0.12
RRIRHRPPRLPRPRPRPGPGPRP	0.282
RRIRHRPPRLPRPRPRPGQIPRP	-0.00195
RRIRHRPPRLPRPRPRPGRLPRP	0.129
RRIRHRPPRLPRPRPRPGSPPRP	-0.171
RRIRHRPPRLPRPRPRPGTMPRP	-0.0455
RRIRHRPPRLPRPRPRPGTYPRP	-0.0156
RRIRHRPPRLPRPRPRPGVAPRP	0.207
RRIRHRPPRLPRPRPRPGVYPRP	-0.138
RRIRHRPPRLPRPRPRPHAIPRP	-0.251
RRIRHRPPRLPRPRPRPHAPPRP	-0.0972
RRIRHRPPRLPRPRPRPHDWPRP	0.0241
RRIRHRPPRLPRPRPRPHEMPRP	-0.257
RRIRHRPPRLPRPRPRPHFAPRP	-0.101
RRIRHRPPRLPRPRPRPHFGPRP	-0.00776
RRIRHRPPRLPRPRPRPHFPPRP	-0.324

Sequence	shrunken log2 fold change
RRIRHRPPRLPRPRPRPHGHPRP	0.219
RRIRHRPPRLPRPRPRPHHSPRP	-0.147
RRIRHRPPRLPRPRPRPHIRPRP	-0.0193
RRIRHRPPRLPRPRPRPHKAPRP	-0.31
RRIRHRPPRLPRPRPRPHLPPRP	-0.0497
RRIRHRPPRLPRPRPRPHLYPRP	-0.24
RRIRHRPPRLPRPRPRPHNHPRP	-0.577
RRIRHRPPRLPRPRPRPHPDPRP	-0.206
RRIRHRPPRLPRPRPRPHPHPRP	-0.19
RRIRHRPPRLPRPRPRPHPNPRP	-0.063
RRIRHRPPRLPRPRPRPHSHPRP	-0.41
RRIRHRPPRLPRPRPRPHTFPRP	-0.386
RRIRHRPPRLPRPRPRPHVSPRP	-0.0122
RRIRHRPPRLPRPRPRPHYDPRP	-0.257
RRIRHRPPRLPRPRPRPIAAPRP	-0.0333
RRIRHRPPRLPRPRPRPIAGPRP	0.0113
RRIRHRPPRLPRPRPRPIAKPRP	0.05
RRIRHRPPRLPRPRPRPIEFPRP	-0.19
RRIRHRPPRLPRPRPRPIFIPRP	-0.372
RRIRHRPPRLPRPRPRPIFSPRP	-0.176
RRIRHRPPRLPRPRPRPIFVPRP	-0.358
RRIRHRPPRLPRPRPRPIGQPRP	-0.042
RRIRHRPPRLPRPRPRPIGWPRP	0.0927
RRIRHRPPRLPRPRPRPIHQPRP	-0.441
RRIRHRPPRLPRPRPRPIKKPRP	-0.06

Sequence	shrunken log2 fold change
RRIRHRPPRLPRPRPRPILKPRP	-0.348
RRIRHRPPRLPRPRPRPITQPRP	-0.0204
RRIRHRPPRLPRPRPRPIVCPRP	-0.0297
RRIRHRPPRLPRPRPRPIYFPRP	-0.123
RRIRHRPPRLPRPRPRPKAGPRP	-0.115
RRIRHRPPRLPRPRPRPKCHPRP	-0.201
RRIRHRPPRLPRPRPRPKCIPRP	-0.021
RRIRHRPPRLPRPRPRPKDHPRP	-0.274
RRIRHRPPRLPRPRPRPKEQPRP	-0.00965
RRIRHRPPRLPRPRPRPKFNPRP	-0.437
RRIRHRPPRLPRPRPRPKFTPRP	-0.219
RRIRHRPPRLPRPRPRPKFYPRP	-0.148
RRIRHRPPRLPRPRPRPKGTPRP	-0.0951
RRIRHRPPRLPRPRPRPKHWPRP	0.26
RRIRHRPPRLPRPRPRPKKLPRP	-0.104
RRIRHRPPRLPRPRPRPKKNPRP	-0.14
RRIRHRPPRLPRPRPRPKLPPRP	0.0191
RRIRHRPPRLPRPRPRPKLSPRP	0.0757
RRIRHRPPRLPRPRPRPKMAPRP	-0.0953
RRIRHRPPRLPRPRPRPKMEPRP	-0.00674
RRIRHRPPRLPRPRPRPKNNPRP	-0.74
RRIRHRPPRLPRPRPRPKNPPRP	-0.155
RRIRHRPPRLPRPRPRPKPEPRP	0.0966
RRIRHRPPRLPRPRPRPKPKPRP	0.231
RRIRHRPPRLPRPRPRPKQHPRP	-0.2
